{"source": "paper PMC13391367", "binders": {"B1": {"name": "biotinylated 15U RNA (ssRNA)", "RNA": "UUUUUUUUUUUUUUU"}}, "molecular_target": "UAP56 (UniProt Q13838 1-428)", "sequence (Q13838 whole entry)": "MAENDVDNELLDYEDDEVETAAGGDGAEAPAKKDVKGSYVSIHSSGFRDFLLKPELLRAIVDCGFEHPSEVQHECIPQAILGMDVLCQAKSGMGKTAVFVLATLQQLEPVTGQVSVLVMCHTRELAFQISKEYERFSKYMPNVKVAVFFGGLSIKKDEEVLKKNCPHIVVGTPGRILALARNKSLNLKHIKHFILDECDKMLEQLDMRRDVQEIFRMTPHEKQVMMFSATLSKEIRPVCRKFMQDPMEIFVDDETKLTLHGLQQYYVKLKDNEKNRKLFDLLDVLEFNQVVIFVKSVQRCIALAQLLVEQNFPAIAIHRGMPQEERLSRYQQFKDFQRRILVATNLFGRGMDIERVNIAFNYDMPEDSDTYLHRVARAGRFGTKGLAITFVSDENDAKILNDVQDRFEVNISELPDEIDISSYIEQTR", "assay": "pull-down (NeutrAvidin beads, RNA unclamping assay); ATP, 2 mM Mg2+; clamped UAP56-ADP-Pi-RNA complex, no release factor; RNA unclamping: 20 mM HEPES pH 7.9, 40 mM KCl, 2 mM MgCl2, 5% glycerol, 0.1% Igepal CA-630, 1 mM ATP at loading, room temperature, 500 mM KCl wash; cryo-EM: 25", "conditions": "protein: recombinant; tags: 10xHis-3C (N-term); single strand"}
{"binder": "B1", "values": [{"measurement": "binding result", "value": "binds"}]}
